This is an account of results in paper PMC2758704, “Human Papillomavirus-16 E7 Interacts with Glutathione S-Transferase P1 and Enhances Its Role in Cell Survival” (PLoS ONE, 2009).

Ends that are not written are not given here.

The assay concerns the target T1, N-6His-GSTP1 recombinant protein (human, UniProt P09211 1-210).
T1 construct: human GSTP1, ORF made by RT-PCR from HaCaT RNA, cloned through pDONR201 into pDEST17; The printed forward primer begins at the codons for Pro-Pro-Tyr-Thr (residue 2, without the first Met) and the reverse primer holds the stop codon; Gateway attB1 linker residues lie between the His tag and GSTP1; also called recombinant GSTP1; not shown: His6, N-terminal, kept
Description: peptide or protein array; PepSets: 30 rod-bound 12-mers of HPV-16 E7 with a 9 amino acid overlap; recombinant GSTP1 captured by each rod detected by an immunoenzyme assay with an anti-GSTP1 polyclonal antibody. To be noted: both partners purified.

T1 sequence (P09211 whole entry): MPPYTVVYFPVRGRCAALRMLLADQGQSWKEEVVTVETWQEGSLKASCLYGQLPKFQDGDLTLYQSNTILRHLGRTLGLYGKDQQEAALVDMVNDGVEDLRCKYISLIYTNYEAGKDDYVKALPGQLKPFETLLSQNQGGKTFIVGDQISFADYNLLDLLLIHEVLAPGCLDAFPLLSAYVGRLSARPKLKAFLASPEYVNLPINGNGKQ

B1: HPV-16 E7 C-terminal 12-mer peptide (30th rod, amino acids 88–99 with an added Gly) (peptide)
peptide: GIVCPICSQKPG
modifications: cysteine pairing not given here; also: bound to a polypropylene rod
notes: residues 88-98 (the C-terminus) of the E7 oncoprotein of HPV-16; a Gly added to the last C-terminal HPV-16 E7 amino acid to complete the 12-mer; The text names the region aa 89–98 in one place and 88–98 in others; also called C-terminal 88–98 peptide; C-terminal portion (aa 89–98); source: synthetic peptide, on polypropylene rods (PepSets, Mimotopes)
As for B1, the binding result is reported as “binds”.

B2: HPV-16 E7 12-mer peptide aa 49–60 (peptide)
peptide: RAHYNIVTFCCK
modifications: cysteine pairing not given here; also: bound to a polypropylene rod
notes: residues 49-60 of the E7 oncoprotein of HPV-16; also called peptide 49–60; the 49–60 12-mer; source: synthetic peptide, on polypropylene rods (PepSets, Mimotopes)
As to B2, the binding result is listed as “binds”.
